Assays:
EVNL-DAEF = target: T1, EVNL-DAEF
T1 chain: EVNLDAEF

DETL-DAHF = target: T2, DETL-DAHF
T2 chain: DETLDAHF

EVNF-EVEF = target: T3, EVNF-EVEF
T3 chain: EVNFEVEF

EIDL-SSHD = target: T4, EIDL-SSHD
T4 chain: EIDLSSHD

EVNL-DAHF = target: T5, EVNL-DAHF
T5 chain: EVNLDAHF

EIDL-MVLD = target: T6, EIDL-MVLD
T6 chain: EIDLMVLD

EVNL-SSHD = target: T7, EVNL-SSHD
T7 chain: EVNLSSHD

ASNL-DAHF = target: T8, ASNL-DAHF
T8 chain: ASNLDAHF

EI(Thi)(Thi)-(Nva)AHF = target: T9, EI(Thi)(Thi)-(Nva)AHF
T9 chain: EIXXXAHF

APSL-DAHF = target: T10, APSL-DAHF
T10 chain: APSLDAHF

B1: BACE enzyme (beta-secretase) (protein)
chain: ETDEEPEEPGRRGSFVEMVDNLRGKSGQGYYVEMTVGSPPQTLNILVDTGSSNFAVGAAPHPFLHRYYQRQLSSTYRDLRKGVYVPYTQGKWEGELGTDLVSIPHGPNVTVRANIAAITESDKFFINGSNWEGILGLAYAEIARPDDSLEPFFDSLVKQTHVPNLFSLQLCGAGFPLNQSEVLASVGGSMIIGGIDHSLYTGSLWYTPIRREWYYEVIIVRVEINGQDLKMDCKEYNYDKSIVDSGTTNLRLPKKVFEAAVKSIKAASSTEKFPDGFWLGEQLVCWQAGTTPWNIFPVISLYLMGEVTNQSFRITILPQQYLRPVEDVATSQDDCYKFAISQSSTGTVMGAVIMEGFYVVFDRARKRIGFAVSACHVHDEFRTAAVEGPFVTLDMEDCGYNIPQTDESTLMTIAY
- Percent Cleavage after 10 hr Incubation with BACE (EVNL-DAEF): 50%
- Percent Cleavage after 10 hr Incubation with BACE (DETL-DAHF): 1%
- Percent Cleavage after 10 hr Incubation with BACE (EVNF-EVEF): 85%
- Percent Cleavage after 10 hr Incubation with BACE (EIDL-SSHD): 5%
- Percent Cleavage after 10 hr Incubation with BACE (EVNL-DAHF): 50%
- Percent Cleavage after 10 hr Incubation with BACE (EIDL-MVLD): 20%
- Percent Cleavage after 10 hr Incubation with BACE (EVNL-SSHD): 3.5%
- Percent Cleavage after 10 hr Incubation with BACE (ASNL-DAHF): Not Detected
- Percent Cleavage after 10 hr Incubation with BACE (EI(Thi)(Thi)-(Nva)AHF): 25%
- Percent Cleavage after 10 hr Incubation with BACE (APSL-DAHF): 0.5%

Source: patent US8859223
